# From patent US20220033784A1 (priority 2020, published 2022)
# Where two headings read alike, the source gives them in different places.
# B1: Fc-IL2v (Fc fusion)
# chain: GGGGSGGGGSAPASSSTKKTQLQLEHLLLDLQMILNGINNYKNPKLTRMLTAKFAMPKKATELKHLQCLEEELKPLEEVLNGAQSKNFHLRPRDLISNINVIVLELKGSETTFMCEYADETATIVEFLNRWITFAQSIISTLT
# Assays:
# Test in all cases: cell-based or functional assay
# [1] = target: T1, human high-affinity IL-2 receptor complex, IL-2 CD25/CD122/CD132 (α/β/γ), on cells (human, UniProt P01589 22-272; P14784 27-551; P31785 23-369)
# T1 sequence (looked up) 1: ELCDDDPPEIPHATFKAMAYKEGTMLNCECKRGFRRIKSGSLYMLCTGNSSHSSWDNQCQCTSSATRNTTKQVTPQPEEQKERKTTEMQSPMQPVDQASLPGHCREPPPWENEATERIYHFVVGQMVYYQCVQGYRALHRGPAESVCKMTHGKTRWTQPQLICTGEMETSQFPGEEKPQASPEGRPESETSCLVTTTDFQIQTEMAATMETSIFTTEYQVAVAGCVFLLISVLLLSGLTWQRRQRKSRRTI
# T1 sequence (looked up) 2: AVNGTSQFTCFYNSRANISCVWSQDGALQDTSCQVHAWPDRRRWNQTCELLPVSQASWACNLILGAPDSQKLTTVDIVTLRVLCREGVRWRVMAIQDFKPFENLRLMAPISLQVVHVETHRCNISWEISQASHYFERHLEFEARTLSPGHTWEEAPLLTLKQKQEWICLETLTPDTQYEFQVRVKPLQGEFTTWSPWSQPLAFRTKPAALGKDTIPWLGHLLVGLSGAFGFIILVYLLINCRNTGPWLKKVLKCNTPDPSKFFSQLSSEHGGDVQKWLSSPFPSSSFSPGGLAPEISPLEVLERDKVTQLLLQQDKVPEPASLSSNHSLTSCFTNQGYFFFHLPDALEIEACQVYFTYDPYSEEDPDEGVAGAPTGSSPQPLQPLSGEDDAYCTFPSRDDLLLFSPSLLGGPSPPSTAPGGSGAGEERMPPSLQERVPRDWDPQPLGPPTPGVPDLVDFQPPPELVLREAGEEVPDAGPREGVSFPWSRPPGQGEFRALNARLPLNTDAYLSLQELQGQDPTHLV
# T1 sequence (looked up) 3: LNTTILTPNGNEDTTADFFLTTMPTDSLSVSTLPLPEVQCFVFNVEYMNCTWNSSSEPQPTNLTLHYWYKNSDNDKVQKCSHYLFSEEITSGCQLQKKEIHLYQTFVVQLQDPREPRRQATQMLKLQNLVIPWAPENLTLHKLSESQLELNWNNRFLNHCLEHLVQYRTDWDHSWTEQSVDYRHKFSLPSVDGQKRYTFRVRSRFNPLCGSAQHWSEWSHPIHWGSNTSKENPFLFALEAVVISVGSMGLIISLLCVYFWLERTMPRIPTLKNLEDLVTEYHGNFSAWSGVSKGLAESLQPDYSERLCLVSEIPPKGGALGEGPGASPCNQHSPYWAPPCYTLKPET
# [2] = target: T1, human high-affinity IL-2 receptor …; remark: listed apart in the source
# [3] = target: T1, human high-affinity IL-2 receptor …; remark: listed apart in the source
# [4] = target: T2, human intermediate-affinity IL-2 receptor complex, IL-2 CD122/CD132 (β/γ), on cells (human, UniProt P14784 27-551; P31785 23-369)
# T2 sequence (looked up) 1: T1 sequence (looked up) 2
# T2 sequence (looked up) 2: T1 sequence (looked up) 3
# [5] = target: T1, human high-affinity IL-2 receptor …; remark: listed apart in the source
# [6] = target: T2, human intermediate-affinity IL-2 …; remark: listed apart in the source
# [7] = target: T2, human intermediate-affinity IL-2 …; remark: listed apart in the source
# [8] = target: T1, human high-affinity IL-2 receptor …; remark: listed apart in the source
# [9] = target: T2, human intermediate-affinity IL-2 …; remark: listed apart in the source
# [10] = target: T2, human intermediate-affinity IL-2 …; remark: listed apart in the source
binder,measurement,setting,value
B1,"EC50 (read off the curve), pSTAT5 MFI in Treg cells of hPBMC",[1],~8 nM
same,"EC50 (read off the curve), pSTAT5 MFI in Treg cells of hPBMC",[2],~8 nM
same,"EC50, pSTAT5 induction in iTreg cells (ELISA)",[3],0.31 nM
same,"EC50, pSTAT5 induction in HH T cells (ELISA)",[4],24.9 nM
same,"EC50 (read off the curve), pSTAT5 MFI in Treg cells of hPBMC",[5],~8 nM
same,"EC50 (read off the curve), pSTAT5 MFI in NK cells of hPBMC",[6],~3 nM
same,"EC50 (read off the curve), pSTAT5 MFI in NK cells of hPBMC",[7],~3 nM
same,"EC50, pSTAT5 in Treg cells of hPBMCs (flow cytometry)",[8],5.88 nM
same,"EC50, pSTAT5 in CD8 T cells of hPBMCs (flow cytometry)",[9],11.3 nM
same,"EC50, pSTAT5 in NK cells of hPBMCs (flow cytometry)",[9],1.53 nM
same,"EC50 (read off the curve), pSTAT5 MFI in NK cells of hPBMC",[10],~3 nM
